Key:
[1] = biological target: T1, human ETA receptor (human) (UniProt P25101)
T1 sequence: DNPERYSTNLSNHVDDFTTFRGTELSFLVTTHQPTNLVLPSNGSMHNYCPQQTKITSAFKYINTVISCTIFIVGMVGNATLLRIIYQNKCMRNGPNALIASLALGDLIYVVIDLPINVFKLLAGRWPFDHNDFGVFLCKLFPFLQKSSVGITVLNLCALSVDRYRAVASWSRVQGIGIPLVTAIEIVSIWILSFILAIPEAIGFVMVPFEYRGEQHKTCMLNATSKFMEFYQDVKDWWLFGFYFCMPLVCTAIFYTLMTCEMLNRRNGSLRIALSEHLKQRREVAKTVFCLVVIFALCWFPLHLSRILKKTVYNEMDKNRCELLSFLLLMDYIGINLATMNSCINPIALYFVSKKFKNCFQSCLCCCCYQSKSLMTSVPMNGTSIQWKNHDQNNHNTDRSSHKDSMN

[2] = biological target: T2, human ETA receptor fused to SmBiT (ETA-SmBiT) (human) (UniProt P25101)
T2 sequence: T1 sequence

[3] = biological target: human ETB receptor, wild type, construct with an internal FLAG epitope tag (human) (UniProt P24530)
[4] = biological target: human ETB receptor, wild type, fused to SmBiT (ETB-SmBiT) (human) (UniProt P24530)
[5] = biological target: thermostabilized human ETB receptor (ETB-Y5) fused to SmBiT (human) (UniProt P24530)
[6] = biological target: thermostabilized human ETB receptor (ETB-Y5), construct with an internal FLAG epitope tag (human) (UniProt P24530)
[7] = biological target: human ETB receptor L252H I254T double mutant, construct with an internal FLAG epitope tag (human) (UniProt P24530)

| Substance | EC50 against that of ET-1, TGFα shedding assay [1] [fold] | EC50 against that of ET-1, NanoBiT β-arrestin recruitment assay [2] [fold] | EC50, AP-TGFα release (TGFα shedding assay, G-protein activation), HEK293 cells [3] [nM] | Emax, TGFα shedding assay, percent of that of ET-1 [3] [%] | AP-TGFα release (TGFα shedding assay), no activation at the concentration tested [1] [nM] | Emax, NanoBiT β-arrestin recruitment assay, percent of that of ET-1 [4] [%] | Emax, NanoBiT β-arrestin recruitment assay, percent of that of ET-1 [5] [%] | Emax, TGFα shedding assay, percent of that of ET-1 [6] [%] | change of EC50 against the wild type receptor, TGFα shedding assay [7] [fold] |
| --- | --- | --- | --- | --- | --- | --- | --- | --- | --- |
| endothelin-3 (from UniProt P14138 97-117) (peptide) | 5 | 5 | – | – | – | – | – | – | – |
| IRL1620 (N-Suc-[E9, A11, 15] ET-1(8-21)) (peptide) | – | – | 0.11 | 88 | > 320 | 87 | 85 | 84 | 2 |
